Columns and labels:
Nyl50 [1] = test: SEC
Nyl50 [2] = test: AUC
Nyl50 [3] = test: AUC; remark: listed apart in the source

## Nyl50 (enzyme)
Nyl50 [1]
  stoichiometry N: 2
Nyl50 [2]
  stoichiometry N: 4
Nyl50 [3]
  stoichiometry N: 2

— paper PMC11601465
